Laboratory results published in article PMC7181328 (ACS Central Science, 2020).
Residue numbers refer to the chain shown, from its start.

B1: β7 ring of the rat 20S proteasome (complex, rat (Rattus norvegicus))
chain 1: RFSPYAFNGGTVLAIAGEDFSIVASDTRLSEGFSIHTRDSPKCYKLTDKTVIGCSGFHGDCLTLTKIIEARLKMYKHSNNKAMTTGAIAAMLSTILYSRRFFPYYVYNIIEGLDEEGKGAVYSFDPVGSYQRDSFKAGGSASAMLQPLLDNQVGFKNMQNVEHVPLTLDRAMRLVKDVFISAAERDVYTGDALRICIVTKEGIREETVPLRKD
chain 2: EYLIGIQGPDYVLVASDRVAASNIVQMKDDHDKMFKMSEKILLLCVGEAGDTVQFAEYIQKNVQLYKMRNGYELSPTAAANFTRRNLADCLRSRTPYHVNLLLAGYDEHEGPALYYMDYLAALAKAPFAAHGYGAFLTLSILDRYYTPTISRERAVELLRKCLEELQKRFILNLPTFSVRVIDKDGIHNLENITFTKRSS
chain 3: SVMSYNGGAVMAMKGKNCVAIAADRRFGIQAQMVTTDFQKIFPMGDRLYIGLAGLATDVQTVAQRLKFRLNLYELKEGRQIKPYTLMSMVANLLYEKRFGPYYTEPVIAGLDPKTFKPFICSLDLIGCPMVTDDFVVSGTCSEQMYGMCESLWEPNMDPEHLFETISQAMLNAVDRDAVSGMGVIVHIIEKDKITTRTLKARMD
chain 4: TQNPMVTGTSVLGVKFDCGVVIAADMLGSYGSLARFRNISRIMRVNDSTMLGASGDYADFQYLKQVLGQMVIDEELFGDGHSYSPRAIHSWLTRAMYSRRSKMNPLWNTKVIGGYAGGESFLGYVDMLGVAYEAPSLATGYGAYLAQPLLREVLEKQPVLSQTEARELVERCMRVLYYRDARSYNRFQVATVTEKGVEIEGPLSAQTNWDIAHMISGFE
chain 5: TTTLAFKFQHGVIVAADSRATAGPYIASQTVKKVIEINPYLLGTMAGGAADCSFWERLLARQCRIYELRNKERISVAAASKLLANMVYQYKGMGLSMGTMICGWDKRGPGLYYVDSEGNRISGTAFSVGSGSVYAFGVMDRGYSYDLQVEEAYDLARRAIYQATYRDAYSGGAVNLYHVREDGWIRVSSDNVADLHDKYTSSIP
chain 6: TTIMAVQFDGGVVLGADSRTTTGSYIANRVTDKLTPIHDHIFCCRSGSAADTQAVADAVTYQLGFHSIELNEPPLVHTAASLFKEMCYRYREDLMAGIIIAGWDPQEGGQVYSVPMGGMMVRQSFAIGGSGSSYIYGYVDATYREGMTKDECLQFTANALALAMERDGSSGGVIRLAAIQQSGVERQVLLGDQIPKVTISTLPPP
chain 7: TTIAGVVYKDGIVLGADTRATEGMVVADKNCSKIHFISPNIYCCGAGTAADTDMTTQLISSNLELHSLTTGRLPRVVTANRMLKQMLFRYQGYIGAALVLGGVDVTGPHLYSIYPHGSTDKLPYVTMGSGSLAAMAVFEDKFRPDMEEEEAKKLVSEAIAAGIFNDLGSGSNIDLCVISKSKLDFLRPYSVPNKKGTRFGRYRCEKGTTAVLTEKVTPLELEVLEEIVQTMDTS
modifications: N-terminal acetylation | N-terminal acetylation
B2: β7 ring of the yeast (Saccharomyces cerevisiae) 20S proteasome (complex)
chain 1: QFNPYGDNGGTILGIAGEDFAVLAGDTRNITDYSINSRYEPKVFDCGDNIVMSANGFAADGDALVKRFKNSVKWYHFDHNDKKLSINSAARNIQHLLYGKRFFPYYVHTIIAGLDEDGKGAVYSFDPVGSYEREQCRAGGAAASLIMPFLDNQVNFKNQYEPGTNGKVKKPLKYLSVEEVIKLVRDSFTSATERHIQVGDGLEILIVTKDGVRKEFYELKRD
chain 2: MDIILGIRVQDSVILASSKAVTRGISVLKDSDDKTRQLSPHTLMSFAGEAGDTVQFAEYIQANIQLYSIREDYELSPQAVSSFVRQELAKSIRSRRPYQVNVLIGGYDKKKNKPELYQIDYLGTKVELPYGAHGYSGFYTFSLLDHHYRPDMTTEEGLDLLKLCVQELEKRMPMDFKGVIVKIVDKDGIRQVDDFQAQ
chain 3: SDPSSINGGIVVAMTGKDCVAIACDLRLGSQSLGVSNKFEKIFHYGHVFLGITGLATDVTTLNEMFRYKTNLYKLKEERAIEPETFTQLVSSSLYERRFGPYFVGPVVAGINSKSGKPFIAGFDLIGCIDEAKDFIVSGTASDQLFGMCESLYEPNLEPEDLFETISQALLNAADRDALSGWGAVVYIIKKDEVVKRYLKMRQD
chain 4: TQQPIVTGTSVISMKYDNGVIIAADNLGSYGSLLRFNGVERLIPVGDNTVVGISGDISDMQHIERLLKDLVTENAYDNPLADAEEALEPSYIFEYLATVMYQRRSKMNPLWNAIIVAGVQSNGDQFLRYVNLLGVTYSSPTLATGFGAHMANPLLRKVVDRESDIPKTTVQVAEEAIVNAMRVLYYRDARSSRNFSLAIIDKNTGLTFKKNLQVENMKWDFAKDIKGYGTQKI
chain 5: TTTLAFRFQGGIIVAVDSRATAGNWVASQTVKKVIEINPFLLGTMAGGAADCQFWETWLGSQCRLHELREKERISVAAASKILSNLVYQYKGAGLSMGTMICGYTRKEGPTIYYVDSDGTRLKGDIFCVGSGQTFAYGVLDSNYKWDLSVEDALYLGKRSILAAAHRDAYSGGSVNLYHVTEDGWIYHGNHDVGELFWKVKEEEGSFNNVIG
chain 6: TSIMAVTFKDGVILGADSRTTTGAYIANRVTDKLTRVHDKIWCCRSGSAADTQAIADIVQYHLELYTSQYGTPSTETAASVFKELCYENKDNLTAGIIVAGYDDKNKGEVYTIPLGGSVHKLPYAIAGSGSTFIYGYCDKNFRENMSKEETVDFIKHSLSQAIKWDGSSGGVIRMVVLTAAGVERLIFYPDEYEQL
chain 7: TTIVGVKFNNGVVIAADTRSTQGPIVADKNCAKLHRISPKIWCAGAGTAADTEAVTQLIGSNIELHSLYTSREPRVVSALQMLKQHLFKYQGHIGAYLIVAGVDPTGSHLFSIHAHGSTDVGYYLSLGSGSLAAMAVLESHWKQDLTKEEAIKLASDAIQAGIWNDLGSGSNVDVCVMEIGKDAEYLRNYLTPNVREEKQKSYKFPRGTTAVLKESIVNICDIQEEQVDITA
modifications: N-terminal acetylation
B3: α-subunit of the archaeal (Thermoplasma acidophilum) 20S proteasome (natural protein)
chain: MQQGQMAYDRAITVFSPDGRLFQVEYAREAVKKGSTALGMKFANGVLLISDKKVRSRLIEQNSIEKIQLIDDYVAAVTSGLVADARVLVDFARISAQQEKVTYGSLVNIENLVKRVADQMQQYTQYGGVRPYGVSLIFAGIDQIGPRLFDCDPAGTINEYKATAIGSGKDAVVSFLEREYKENLPEKEAVTLGIKALKSSLEEGEELKAPEIASITVGNKYRIYDQEEVKKFL
B4: PSMA2 subunit of the human 20S proteasome (natural protein, human (HEK293 cells), UniProt P25787 2-234, looked up)
chain: AERGYSFSLTTFSPSGKLVQIEYALAAVAGGAPSVGIKAANGVVLATEKKQKSILYDERSVHKVEPITKHIGLVYSGMGPDYRVLVHRARKLAQQYYLVYQEPIPTAQLVQRVASVMQEYTQSGGVRPFGVSLLICGWNEGRPYLFQSDPSGAYFAWKATAMGKNYVNGKTFLEKRYNEDLELEDAIHTAILTLKESFEGQMTEDNIEVGICNEAGFRRLTPTEVKDYLAAIA
modifications: N-terminal acetylation
B5: PSMA2 subunit of the rat 20S proteasome (natural protein, rat (Rattus norvegicus), UniProt P17220 2-234, looked up)
chain: B4 chain with K226R
modifications: N-terminal acetylation
B6: β-subunit of the archaeal (Thermoplasma acidophilum) 20S proteasome (natural protein, UniProt P28061 9-211, looked up)
chain: TTTVGITLKDAVIMATERRVTMENFIMHKNGKKLFQIDTYTGMTIAGLVGDAQVLVRYMKAELELYRLQRRVNMPIEAVATLLSNMLNQVKYMPYMVQLLVGGIDTAPHVFSIDAAGGSVEDIYASTGSGSPFVYGVLESQYSEKMTVDEGVDLVIRAISAAKQRDSASGGMIDVAVITRKDGYVQLPTDQIESRIRKLGLIL

How the values were obtained:
[1] = molecular target: the molecule itself; assay: native MS; SID-IM-MS on a Synapt G2 with SID device: two most intense charge states isolated, surface-induced dissociation at 150 V, subcomplexes separated by ion mobility; charge reduced with TEAA (0.1/0.9 TEAA/ammonium acetate, v/v)
[2] = molecular target: α7 ring of the yeast (Saccharomyces cerevisiae) 20S proteasome (yeast (Saccharomyces cerevisiae), UniProt P40302 1-234; P23639 2-250; P21242 1-288; P23638 2-258; P32379 1-260; P21243 …, N-terminal acetylation | N-terminal acetylation | N-terminal acetylation | N-terminal acetylation | N-terminal acetylation | N-terminal acetylation); assay: native MS; intact 20S proteasomes, native IM-MS on a modified Synapt G1; 150 mM ammonium acetate, pH 7, ~3 uM; settings: both partners purified
[3] = molecular target: PSMA6 subunit of the human 20S proteasome (human (HEK293 cells), UniProt P60900 2-246, N-terminal acetylation); assay: native MS; SID-IM-MS on a Synapt G2 with SID device: two most intense charge states isolated, surface-induced dissociation at 150 V, subcomplexes separated by ion mobility; charge reduced with TEAA (0.1/0.9 TEAA/ammonium acetate, v/v); settings: both partners purified
[4] = molecular target: PSMA6 subunit of the rat 20S proteasome (rat (Rattus norvegicus), UniProt P60901 2-246, N-terminal acetylation); assay: as above; settings: both partners purified
[5] = molecular target: B3; assay: as above; settings: both partners purified

Chain of PSMA6 subunit of the rat 20S proteasome (P60901 2-246): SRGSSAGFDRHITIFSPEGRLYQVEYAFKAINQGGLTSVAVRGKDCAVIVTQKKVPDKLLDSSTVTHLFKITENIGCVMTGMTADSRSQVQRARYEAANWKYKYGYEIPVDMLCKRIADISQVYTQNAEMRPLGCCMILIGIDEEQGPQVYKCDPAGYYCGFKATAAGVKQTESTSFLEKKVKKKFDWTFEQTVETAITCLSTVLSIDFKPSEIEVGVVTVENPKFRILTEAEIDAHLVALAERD
Chain of PSMA6 subunit of the human 20S proteasome (P60900 2-246): as the sequence (P60901 2-246) above

Row | Binder | binding result [1] | further results
1 | B1 | binds | 
2 | B2 | binds | binding result [2]: binds
3 | B3 | binds | 
4 | B4 |  | binding result [3]: binds
5 | B5 |  | binding result [4]: binds
6 | B6 | binds | binding result [5]: binds
